The numbers were not newly measured in patent US20100143424A1, “CASEIN NANOPARTICLE” (FUJIFILM CORPORATION, priority 2008, published 2010), which cites them from elsewhere.

The conditions of this data set: casein derived from milk, Wako Pure Chemical Industries.

In the case of casein, the isoelectric point is reported as 4.3.
